What was measured:
[1] = molecular target: the molecule itself; assay: cross-linking; pure YukE-His6 (0.4 to 10.3 uM with 0.25 mM BS3; 20 to 84 uM with 1 mM BS3) in YukE buffer (50 mM HEPES-Na pH 7.0, 300 mM NaCl), 30 min at room temperature; 15% SDS-PAGE, Coomassie staining or Western blot with anti-YukE-His6
[2] = molecular target: the molecule itself; assay: cross-linking; concentrated, dialysed (25 mM HEPES pH 7, 250 mM NaCl) cell-free supernatant of a W654 culture at T2, 2.5 ug total protein, 1 mM or 5 mM BS3, 30 min at room temperature; Western blot with anti-YukE-His6

B1: YukE-His6 (natural protein, B. subtilis, UniProt C0SP85 1-97, looked up)
chain: MAGLIRVTPEELRAMAKQYGVESQEVLNQVDRLNRMISDLKSMWEGASSEAFADQYEQLKPSFIKMSDLLQDVNQQLDQTANTLESTDQDIANQIRG
notes: YukE, WXG100 protein of Bacillus subtilis; YukE-His6 is 12.17 kDa; The vector may add linker residues between YukE and the His6 tag; The vector is named pIVEX3.2d once and pIVEX2.3d once; also called recombinant YukE; YukE C-terminally tagged with a hexahistidine tail; not shown: His6, C-terminal, kept
With B1 the “stoichiometry N” value [1] was 2.

B2: native YukE (natural protein, UniProt C0SP85 1-97, looked up)
chain: B1 chain
notes: YukE, WXG100 protein of Bacillus subtilis, as secreted to the culture medium; predicted mass of the native dimer ~22 kDa; the protein here is from an ATCC 6051 derivative; also called YukE present in a concentrated culture supernatant of strain W654
In the case of B2, the “stoichiometry N” value [2] is reported as 2.

Reference: article PMC3701619, “High Levels of DegU-P Activate an Esat-6-Like Secretion System in Bacillus subtilis” (PLoS ONE, 2013)
